Assay results taken from the supplement of paper PMC9170038.

System: MS2 coat protein
Assay: apparent KD of MS2 coat protein; designed switch direction (-1 OFF switch, 1 ON switch): -1; higher = weaker reporter binding
Outline: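 Normalised cluster fluorescence was curve-fitted, and each design's median over clusters is its apparent KD. Before this, SNAP-549-labelled MS2 coat protein was titrated from 0.7 or 1.5 nM, doubling to 3 µM, over RNA switches transcribed on Illumina chips by stalled E. coli RNA polymerase. Titrations had no input, 200 uM small-molecule ligand, or an oligonucleotide input, and steps lasted 0.8–1.5 h (lowest) to 10–20 min (highest).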

[1] = Eterna round: R95, input ligand: FMN 200 uM
[2] = Eterna round: R95, input ligand: microRNA oligo, concentration not stated
[3] = Eterna round: R95, input ligand: none
[4] = input ligand: microRNA oligo, concentration not stated

Sequence	apparent KD of MS2 coat protein [1]	apparent KD of MS2 coat protein [2]	apparent KD of MS2 coat protein [3]	apparent KD of MS2 coat protein (input ligand: FMN 200 uM)	apparent KD of MS2 coat protein [4]	apparent KD of MS2 coat protein (input ligand: none)
ACAAGCUCUUUGCAACUUAGUUUUGUUGCUUCGUAGGUAACAUGAGGAUCACCCAUGUAAGAGUGAUGUCGUCUUAU [JR_SV3TOV2_Sub085] (puzzle: Sensor v3, turn-off variant 2)	65.8 nM	52.7 nM	76.9 nM			
CUUAGACAUGAGGAUCACCCAUGUGAGGAUAUGAUGCGAUCGUGCUGACAUGAUCGCAUCAGAAGGCACAUAUG [JL-ex1-01 Hyphema Mod2] (puzzle: Exclusion 1)		120 nM				
UGUUGUCGCGCAGGAUAUGAGGAUCACCCAUAUAGAGGAUAUGAAAAGAAGGCUCUGAGGAUUACCCAGAAGGGCGGGACAACU [pwkr exNG2 2xF5 2xFMN.21] (Eterna round: R96, puzzle: Exclusion NG 2)				1660 nM	152 nM	179 nM
UUCCCGCGCGUGAGGAUAUGCUGAUCCCAGGAUUAGCAGAAGGCACAUGAGGAUCACCCAUGUCCAACUUGUCU [LRO-BmodExc4-14- Bluer = mod of Colors by Tatyana Zabanova] (Eterna round: R97, puzzle: Brourd's mod of Exclusion 4)				38.5 nM		31.6 nM
CUCCUCAUGGCGCCUAAACACAUGAGGAUCACCCAUGUACAGGCUUUUUGCCGUCUUAUAAUAAAACCGAGGAUACG [Raaen] (puzzle: Sensor v3, turn-off variant 1)	76.3 nM	167 nM	149 nM			
CUAAAUCAUGUAGGAUAUGCGUGGCAAAGCUAUGCAGAAGGACAUGAGGAUCACCCAUGUCAUUCCGUCUGGAAACAGACGGGA [Mat - Exclusion NG 1 - Mod of JL - D53] (Eterna round: R96, puzzle: Exclusion NG 1)				283 nM	18.1 nM	22.8 nM
GCUUUUGGGCAAGGAUAUCCUGCGCGGUUCCGGUUCGUGUCUGUCACAUGAGGAUCACCCAUGUGGGAGAAGGUGCCUGUGGUG [Design 72] (Eterna round: R96, puzzle: Exclusion NG 2)				28.3 nM	13.6 nM	18.4 nM
UGAGUGCUGCGAGGAUAUACAUGAGGAUCACCCAUGUAAACGUGUGAGGCUUUGCCUCACACGAUGUAGAAGGCGCAGUACUCU [JL ENG2 1.05] (Eterna round: R96, puzzle: Exclusion NG 2)				18.4 nM	9.25 nM	14 nM
GCAUGUCUUAAGGAUAUGCCUAGGCGUGAGCCGGCAGAAGGUAAGACAUGAGGAUCACCCAUGUUUUCCUAAAA [jl-ex6-4.30 ViennaUCT mod] (Eterna round: R97, puzzle: Exclusion 6)				280 nM		51.2 nM
CCAACCAGAGGAUAUGCGCAUAGAUCAGACUUUGUUUCUGAACAUGAGGAUCACCCAUGUAGAAGGCUGUAACC [Ex2 #86] (Eterna round: R97, puzzle: Exclusion 2)				26 nM		27.3 nM
UUUCCCUGUGUGAGGAUAUACUUGUUUGGGUUUUUGUAGAAGGCACAUGAGGAUCACCCAUGUACUCUGUCCUG [JR_BME4_Sub022] (puzzle: Brourd's mod of Exclusion 4)		22.1 nM				
GGUCGACAUGAGGAUCACCCAUGUCAGGAUAUCGUCACUGGAGCUUCGGCUCCAGUGACGAGAAGGGAUAUAAU [E1/15-A1] (Eterna round: R97, puzzle: Exclusion 1)				24.6 nM		36.9 nM
AUUUUGUCAGGAUAUGAGUAGUAGGACGAAAGUGUUAUUAUUUAGAAGGGACAUGAGGAUCACCCAUGUUUCUC [Bring Us a Shrubbery-02] (puzzle: Exclusion 4)		12.2 nM				
UAAAGUGAGUCCUCGCAGCAGCGUAGGGCGGUGCUAGCUACAUGAGGAUCACCCAUGUUUUCGCUCGUCCAGCACCU [Ceaorreti] (Eterna round: R96, puzzle: Sensor v2, turn-off variant 2)				89.2 nM	59.2 nM	101 nM
CGAUGUGGAGUGAGGAUAUCGUGUUCGAAAGAACGUGAGAAGGCACAUGAGGAUCACCCAUGUGAUACAUGUCG [Omei Ex4B A16] (Eterna round: R97, puzzle: Brourd's mod of Exclusion 4)				92.2 nM		24.6 nM
CUAUCCAGAGGAUAUACGAGAUCGAAAGAUCGGCGAUCCCUACAUGAGGAUCACCCAUGUAGAAGGCUGGAUAG [Mod 17 - Jieux - Exclusion 2] (Eterna round: R97, puzzle: Exclusion 2)				83.8 nM		19.7 nM
CACCUACAUGAGGAUCACCCAUGUGAGGAUAUGGAACAACAAGAACAUUUACUUGUUCCCAGAAGGCACAUUGG [jun14#1] (Eterna round: R97, puzzle: Exclusion 1)				64.3 nM		130 nM
